Read-outs that look alike come from different tables or passages of the source.
Columns and labels:
[1] = target: T1, WRKY28 (Arabidopsis thaliana, UniProt Q8VWJ2 1-318); test: EMSA
[2] = target: T2, WRKY8 (Arabidopsis thaliana, UniProt Q9FL26 1-326); test: EMSA
[3] = target: T3, WRKY48 (Arabidopsis thaliana, UniProt Q9FGZ4 1-399); test: EMSA
[4] = target: T1, WRKY28; test: EMSA; remark: listed apart in the source
[5] = target: T2, WRKY8; test: EMSA; remark: listed apart in the source
[6] = target: T3, WRKY48; test: EMSA; remark: listed apart in the source
[7] = target: His-WRKY48 (recombinant) (Arabidopsis thaliana, UniProt Q9FGZ4 1-399); test: pull-down
His-WRKY48 (recombinant), sequence (Q9FGZ4 whole entry): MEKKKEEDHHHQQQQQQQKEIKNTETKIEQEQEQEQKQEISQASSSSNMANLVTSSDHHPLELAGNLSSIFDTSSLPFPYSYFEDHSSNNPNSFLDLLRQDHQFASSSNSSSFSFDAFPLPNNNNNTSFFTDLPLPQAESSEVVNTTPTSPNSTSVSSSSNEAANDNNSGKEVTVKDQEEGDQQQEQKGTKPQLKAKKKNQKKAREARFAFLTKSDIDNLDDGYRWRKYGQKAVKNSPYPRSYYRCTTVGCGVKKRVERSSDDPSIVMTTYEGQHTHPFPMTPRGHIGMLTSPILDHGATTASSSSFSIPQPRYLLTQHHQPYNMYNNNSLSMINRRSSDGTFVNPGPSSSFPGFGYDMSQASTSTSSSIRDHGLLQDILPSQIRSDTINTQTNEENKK

T1 sequence (Q8VWJ2 whole entry): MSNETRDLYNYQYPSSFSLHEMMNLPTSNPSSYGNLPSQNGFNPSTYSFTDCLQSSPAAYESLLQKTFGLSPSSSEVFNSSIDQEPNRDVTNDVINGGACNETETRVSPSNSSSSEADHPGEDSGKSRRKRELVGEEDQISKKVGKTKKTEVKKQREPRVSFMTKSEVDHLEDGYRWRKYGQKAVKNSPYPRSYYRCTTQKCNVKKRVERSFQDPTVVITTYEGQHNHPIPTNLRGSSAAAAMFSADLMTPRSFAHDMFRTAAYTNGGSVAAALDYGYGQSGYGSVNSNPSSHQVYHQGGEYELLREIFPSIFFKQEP
T2 sequence (Q9FL26 whole entry): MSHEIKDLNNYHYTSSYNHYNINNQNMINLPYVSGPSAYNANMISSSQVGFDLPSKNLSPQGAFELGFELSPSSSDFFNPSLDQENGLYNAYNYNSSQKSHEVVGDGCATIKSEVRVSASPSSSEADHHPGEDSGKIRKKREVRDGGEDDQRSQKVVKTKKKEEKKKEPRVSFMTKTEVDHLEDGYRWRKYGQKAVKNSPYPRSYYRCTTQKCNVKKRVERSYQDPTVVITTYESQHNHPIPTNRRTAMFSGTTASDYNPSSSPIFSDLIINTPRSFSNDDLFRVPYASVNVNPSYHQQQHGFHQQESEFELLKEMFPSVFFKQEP
T3 sequence (Q9FGZ4 whole entry): as the sequence (Q9FGZ4 whole entry) above

B1: CIPK6 promoter P1 (TTGACA) (dsDNA)
DNA 1: CATCGCTATCCAAATAATTGACAAACTCGAAGCCGCC
DNA 2: GGCGGCTTCGAGTTTGTCAATTATTTGGATAGCGATG
B1: no binding [1]; no binding [2]; binds [3].

B2: CIPK6 promoter P1+P2 (dsDNA)
DNA 1: TAAATCGCATCGTGACCGGTCATAAAAAGACACGTGTCGTCATCGCTATCCAAATAATTGACAAACTCGAAGCCGCCAAGGG
DNA 2: CCCTTGGCGGCTTCGAGTTTGTCAATTATTTGGATAGCGATGACGACACGTGTCTTTTTATGACCGGTCACGATGCGATTTA
B2: no binding [4]; no binding [5]; binds [6].

B3: CIPK6 promoter P2 (GGTCA) (dsDNA)
DNA 1: GTTTAATTACTATCACACCGGTCACGCTGGTTTACC
DNA 2: GGTAAACCAGCGTGACCGGTGTGATAGTAATTAAAC
B3: no binding [1]; no binding [2].

B4: GST-MPK3 (recombinant) (enzyme, Arabidopsis thaliana, UniProt Q39023 1-370, looked up)
chain: MNTGGGQYTDFPAVETHGGQFISYDIFGSLFEITSKYRPPIIPIGRGAYGIVCSVLDTETNELVAMKKIANAFDNHMDAKRTLREIKLLRHLDHENIIAIRDVVPPPLRRQFSDVYISTELMDTDLHQIIRSNQSLSEEHCQYFLYQLLRGLKYIHSANIIHRDLKPSNLLLNANCDLKICDFGLARPTSENDFMTEYVVTRWYRAPELLLNSSDYTAAIDVWSVGCIFMELMNRKPLFPGKDHVHQMRLLTELLGTPTESDLGFTHNEDAKRYIRQLPNFPRQPLAKLFSHVNPMAIDLVDRMLTFDPNRRITVEQALNHQYLAKLHDPNDEPICQKPFSFEFEQQPLDEEQIKEMIYQEAIALNPTYG
B4: binds [7].

Source: paper doi:10.1101/2025.05.21.655431 (bioRxiv, 2025)
